From patent US6034062

Tests used:
[1] = biological target: BMP-9 receptors expressed on HepG2 cells (ATCC HB8065); test: 125I-BMP-9 binding to confluent HepG2 cells, displacement by unlabelled BMP-9, Scatchard analysis
[2] = biological target: plasma membrane preparation from adult rat lung; test: [125I]rhBMP-9 displacement profile on rat lung plasma membranes
[3] = biological target: BMP-9 receptors expressed on HepG2 cells (ATCC HB8065)
[4] = biological target: plasma membrane preparation from adult rat kidney; test: [125I]rhBMP-9 displacement profile on rat kidney plasma membranes
[5] = biological target: BMP-9 receptors expressed on HepG2 cells (ATCC HB8065); test: 125I-BMP-9 binding to HepG2 cells, high affinity sites

B1: recombinant human BMP-9 (CHO-derived, mature) (ligand)
chain: TRECSRSCPRTAPQRQVRAVTRRTRMAHVAAGSTLARRKRSAGAGSHCQKTSLRVNFEDIGWDSWIIAPKEYEAYECKGGCFFPLADDVTPTKHAIVQTLVHLKFPTKVG
modifications: 125I-iodinated as tracer; unlabelled BMP-9 used as the displacing ligand
Kd [1]: 0.3 nM | Kd [2]: 0.6 nM | 3H-thymidine incorporation in HepG2 cells [3]: 5 fold | ED50 of 3H-thymidine incorporation in HepG2 cells [3]: 10 ng/mL | Kd [4]: 0.3 nM | Kd [5]: 0.27 nM
